The EC50 (read off the curve) is the concentration that produces a half-maximal response.

Data on two molecules can be found in patent publication US20190144565A1 (UCB, published 2019).

The labels stand for the following.
B1: sFcεRIα-IgG4-Fc fusion protein (α-γ) (Fc fusion, UniProt P12319 26-205, looked up)
chain: VPQKPKVSLNPPWNRIFKGENVTLTCNGNNFFEVSSTKWFHNGSLSEETNSSLNIVNAKFEDSGEYKCQHQQVNESEPVYLEVFSDWLLLQASAEVVMEGQPLFLRCHGWRNWDVYKVIYYKDGEALKYWYENHNISITNATVEDSGTYYCTGKVWQLDYESEPLNITVIKAPREKYWLQ
notes: extracellular domain; also called αγ-fusion protein; Alexa Fluor 647 labeled sFcεRIα-IgG4-Fc; not shown: IgG4 Fc
B2: IgE-Fc according to Seq. ID No. 108 (V224-K547) with the mutations N265Q & N371Q (other)
chain: VASRDFTPPTVKILQSSCDGGGHFPPTIQLLCLVSGYTPGTIQITWLEDGQVMDVDLSTASTTQEGELASTQSELTLSQKHWLSDRTYTCQVTYQGHTFEDSTKKCADSNPRGVSAYLSRPSPFDLFIRKSPTITCLVVDLAPSKGTVQLTWSRASGKPVNHSTRKEEKQRNGTLTVTSTLPVGTRDWIEGETYQCRVTHPHLPRALMRSTTKTSGPRAAPEVYAFATPEWPGSRDKRTLACLIQNFMPEDISVQWLHNEVQLPDARHSTTQPRKTKGSGFFVFSRLEVTRAEWEQKDEFICRAVHEAASPSQTVQRAVSVNPGK
notes: also called IgE-Fc (N265Q, N371Q); terbium labeled IgE-Fc

For experiment [1], the target named is B2. The experiment in a line: TR-FRET; labelled αγ-fusion protein titrated on labelled IgE-Fc, no omalizumab Fab3. On the technique in general: Time-resolved FRET reads energy transfer from a long-lived donor to a nearby acceptor.
The target in experiment [2] is T1, sFcεRIα, the extracellular portion of the alpha chain of the human high affinity IgE receptor (human, UniProt P12319 26-205).
T1 construct: extracellular domain; also called sFcERIa; Alexa488 labelled sFcεRIα
T1 sequence (looked up): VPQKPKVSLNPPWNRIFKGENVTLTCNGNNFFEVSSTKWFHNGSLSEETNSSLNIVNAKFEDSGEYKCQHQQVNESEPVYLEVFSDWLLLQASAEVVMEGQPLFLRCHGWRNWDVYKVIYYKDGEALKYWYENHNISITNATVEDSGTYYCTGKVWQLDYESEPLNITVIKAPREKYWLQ
The experiment in a line: SPR; IgE-Fc captured on immobilised sFcεRIα.

Experiment [3] has as its target B1. The experiment in a line: TR-FRET; labelled αγ-fusion protein titrated on labelled IgE-Fc, no omalizumab Fab3.

With B1, the “EC50 (read off the curve)” value in experiment [1] is approximately 1 nM. As for B2, the binding result in experiment [2] and in experiment [3] was “binds” in each case.
